Data as given in article PMC3105425.

Target: truncated form of ribosomal protein L2 (E. coli) (UniProt P60422)
Assay: ELISA

DnaAΔ129 lacking the N-terminal 129 residues, sequence (P03004 130-467, stated change not applied): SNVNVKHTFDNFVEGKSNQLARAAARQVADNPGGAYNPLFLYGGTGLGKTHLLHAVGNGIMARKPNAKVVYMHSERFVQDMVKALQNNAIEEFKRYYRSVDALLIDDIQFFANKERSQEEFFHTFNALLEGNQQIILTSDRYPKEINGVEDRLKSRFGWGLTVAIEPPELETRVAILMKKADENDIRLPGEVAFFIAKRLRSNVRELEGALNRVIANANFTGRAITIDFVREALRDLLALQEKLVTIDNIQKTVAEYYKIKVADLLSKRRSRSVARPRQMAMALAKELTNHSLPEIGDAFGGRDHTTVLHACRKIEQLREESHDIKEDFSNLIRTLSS

fold reduction of the interaction against wild-type DnaA: 4 fold
Substance: DnaAΔ129 lacking the N-terminal 129 residues (from UniProt P03004 130-467) (domain or fragment)
